# In patent publication US20260176336A1 (MESTAG THERAPEUTICS, published 2026):
# Changes are numbered by the printed parent chain.
# B1: Clone 4.17 (bispecific antibody)
# heavy 1: not shown
# heavy 2: QLQLQESGPGLVKPSETLSLTCTVSGGSISSSTYYWGWIRQPPGKGLEWIGSIFYSGNTYYNPSLKSRVTISVDTSKNQFSLRLNSVTAADTAVYYCAREIIEPRPGYFDYWGQGTLVTVSSASTKGPSVFPLAPSSKSTSGGTAALGCLVKDYFPEPVTVSWNSGALTSGVHTFPAVLQSSGLYSLSSVVTVPSSSLGTQTYICNVNHKPSNTKVDKKVEPKSCDKTHTCPPCPAPEAAGGPSVFLFPPKPKDTLMISRTPEVTCVVVDVSHEDPEVKFNWYVDGVEVHNAKTKPREEQYNSTYRVVSVLTVLHQDWLNGKEYKCKVSNKALPAPIEKTISKAKGQPREPQVCTLPPSRDELTKNQVSLSCAVKGFYPSDIAVEWESNGQPENNYKTTPPVLDSDGSFFLVSKLTVDKSRWQQGNVFSCSVMHEALHNHYTQKSLSLSPG
# light: not shown
# B2: Clone 4.18 (bispecific antibody)
# heavy 1: not shown
# heavy 2: B1 heavy 2
# light: not shown
# B3: Clone 4.16 (bispecific antibody)
# heavy 1: not shown
# heavy 2: QVQLVQSGTEVKKPGASVKVSCKASGYTFTGYYMNWVRQAPGQGLEWVGWINPNSGDTNFAQKFQGRVTMTRDSSISTAYMELSRLRSDDTAVYYCARQFRGYSYGYGMDVWGKGTTVTVSSASTKGPSVFPLAPSSKSTSGGTAALGCLVKDYFPEPVTVSWNSGALTSGVHTFPAVLQSSGLYSLSSVVTVPSSSLGTQTYICNVNHKPSNTKVDKKVEPKSCDKTHTCPPCPAPEAAGGPSVFLFPPKPKDTLMISRTPEVTCVVVDVSHEDPEVKFNWYVDGVEVHNAKTKPREEQYNSTYRVVSVLTVLHQDWLNGKEYKCKVSNKALPAPIEKTISKAKGQPREPQVCTLPPSRDELTKNQVSLSCAVKGFYPSDIAVEWESNGQPENNYKTTPPVLDSDGSFFLVSKLTVDKSRWQQGNVFSCSVMHEALHNHYTQKSLSLSPG
# light: not shown
# B4: Clone 3.2 (antibody, V domains shown)
# VH: QVQLVQSGAEVKKPGASVKVSCKASGYTFTGYYMHWVRQAPGQGLEWMGWIYPNTGGTNYAQNFQGRVTMTRDTSISTAYMELSSLRSDDTAVYYCARDDYNKNLDYWGQGTLVTVSS
# VL: DIQMTQSPSTLSASVGDRGTITCRASQSIGSWLAWYQQKPGKTPKLLIYKASSLESGVPSRFSGSGSGTEFTLTISSLQPDDFATYYCQQYNSYFRTFGQGTKVEIK
# notes: anti-FAP mAb (bivalent)
# B5: Clone 3.4 (antibody, V domains shown)
# VH: EVQLVESGGGLVKPGGSLRLSCVASGFTFSLAWMNWVRQAPGKGLEWVGHIKSRADGGSTDYAAPVKGRFTISRDDSKNTLYLHMNSLKTEDTAVYFCSRFYWNYVLDYWGQGTLVTVSS
# VL: DIQMTQSPSSLSASVGDRVTITCRASQSINSYFNWYQQKPGKAPKLLIYAASGLQSGVPSRFSGSGSGTDFTLTISSLQPEDFATYYCQQSYSPPYTFGQGTNLEIK
# notes: anti-FAP mAb (bivalent)
# B6: Clone 3.1 (antibody, V domains shown)
# VH: QLQLQESGPGLVKPSETLSLTCTVSGGSISSSTYYWGWIRQPPGKGLEWIGSIFYSGNTYYNPSLKSRVTISVDTSKNQFSLRLNSVTAADTAVYYCAREIIEPRPGYFDYWGQGTLVTVSS
# VL: B5 VL with N30S, S31K, F33L, L46F, G53S, Y92N, P94I, Y96R, N103K, L104V
# notes: anti-FAP mAb (bivalent)
# B7: Clone 3.3 (antibody, V domains shown)
# VH: QVQLVQSGTEVKKPGASVKVSCKASGYTFTGYYMNWVRQAPGQGLEWVGWINPNSGDTNFAQKFQGRVTMTRDSSISTAYMELSRLRSDDTAVYYCARQFRGYSYGYGMDVWGKGTTVTVSS
# VL: DIQMTQSPSSLSASVGDRVTITCRASQNIGSYLNWYQQKPGKAPKLLIYAASSLQSGVPSRFSGSGSGTDFTLTISSLQPEDFATYYCQQANSFPFTFGPGTKVDIK
# notes: anti-FAP mAb (bivalent)
# B8: Clone 1.3 (VHH, not shown: small tags and cut ends)
# VHH: EVQLVESGGGLVQPGGSLRLSCAASGRTFTNYRMAWFRQAPGKEREAVAAINWNGGGTYYADSVKGRFTISRDNAKNTVYLQMNSLRPEDTAVYYCAADSTGWGSYFDYWGQGTLVTVSS
# notes: monovalent anti-LTBR VHH; also called 1.3 (parental clone for 1.8)
# B9: Clone 1.4 (VHH, not shown: small tags and cut ends)
# VHH: EVQLVESGGGLVQPGGSLRLSCKASGTTFSDRAFGWYRQAPGKQRELVATISTAGLTWYDVSVKGRFIISRDNPENTVYLQMNSLRPEDTAVYYCNTFRGNWGQGTLVTVSS
# notes: monovalent anti-LTBR VHH; also called 1.4 (parental clone for 1.6)
# B10: Clone 1.2 (VHH, not shown: small tags and cut ends)
# VHH: EVQLVESGGGLVQPGGSLRLSCAASGSSIFSFEIMAWYRQAPGKQRELVAVINKGGEANYPDSVEGRFTISRDNAKNTVYLQMNSLRPEDTAVYYCNADAVPHGSYWGQGTLVTVSS
# notes: monovalent anti-LTBR VHH; also called 1.2 (parental clone for 1.5)
# B11: Clone 1.1 (VHH, not shown: small tags and cut ends)
# VHH: EVQLVESGGGLVQPGGSLRLSCAASGRFFGIYDMYWYRQPPGKQRELVAISTSGGHTNYADSVKGRFTISRDNAKNTVYLQMNSLRPEDTAVYYCNIQRVDAPGMYWGQGTLVTV
# notes: monovalent anti-LTBR VHH; also called 1.1 (parental clone for 1.7)
# Target: T1, human LTBR endogenously expressed on cells (HepG2, A549, A375, HCC1187, RPMI-7951, primary human breast CAFs) (human, UniProt P36941 31-435)
# T1 sequence (P36941 31-435): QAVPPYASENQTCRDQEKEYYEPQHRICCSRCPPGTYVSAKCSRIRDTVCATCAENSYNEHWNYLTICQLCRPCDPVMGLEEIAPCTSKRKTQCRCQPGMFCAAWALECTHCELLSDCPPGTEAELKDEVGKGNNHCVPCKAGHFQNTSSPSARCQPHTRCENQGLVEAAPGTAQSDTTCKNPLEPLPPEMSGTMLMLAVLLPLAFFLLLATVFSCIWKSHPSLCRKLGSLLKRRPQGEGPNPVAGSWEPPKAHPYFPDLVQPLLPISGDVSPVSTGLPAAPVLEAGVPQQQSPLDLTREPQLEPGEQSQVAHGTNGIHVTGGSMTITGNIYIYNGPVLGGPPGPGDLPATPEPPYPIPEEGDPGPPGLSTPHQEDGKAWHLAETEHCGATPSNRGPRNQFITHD
# Assay: cell-based or functional assay
row,Binder,"HepG2 Reporter assay, HepG2:FAP-CHO-K1 Co-culture EC50 [nM]"
1,B1,0.017
2,B2,0.023
3,B3,0.016

# Target: T1, human LTBR endogenously expressed on …
# Assay: cell-based or functional assay
# Remark: another data set of the same source
row,Binder,"CCL19 upregulation, HCC1187:CAF Co-culture EC50 [nM]"
1,B1,0.06
2,B2,0.12
3,B3,0.09

# Target: T1, human LTBR endogenously expressed on …
# Assay: cell-based or functional assay
# Remark: another data set of the same source
row,Binder,chemokine (CCL5) induction in RPMI-7951 EC50 [nM]
1,B1,0.01
2,B2,0.067
3,B3,0.0078

# Target: T2, human FAP expressed on cells (transfected HEK293; FAP-CHO-K1 recombinant cell line, BPS cat no. 79947) (human, UniProt Q12884 1-760)
# T2 construct: also called HuFAP-HEK293; Hek-FAP
# Assay: flow cytometry, HEK293-FAP overexpressing cells
row,Binder,EC50 [nM]
1,B1,0.8
2,B2,1
3,B3,0.4

# Target: T2, human FAP expressed on cells …
# Assay: flow cytometry, human FAP-transfected HEK293 cells
# Protocol: The binding of antibodies to human FAP expressed on transfected HEK293 cells was measured by FACS. In addition, binding to parental HEK293 was tested to confirm antibody specificity. In short, the cells were resuspended in the FACS binding buffer and live/dead efluro450 viability dye was added at a 1:1000 dilution to the cell suspension, followed by incubation at room temperature in the dark for 30 minutes. The cells were then diluted to 2 e5/ml, and 100 ul was added to wells of a 96-well U-bottom plate as required. […] The cells were pelleted by centrifugation, and the supernatant was discarded, followed by the addition of a series of dilutions of anti-FAP antibodies and incubation for 45 minutes at 4° C. in the dark. Cells were washed two times with PBS with 3% (w/v) BSA before adding 60 ul of fluorescently labelled secondary antibody (goat anti-human IgG) diluted to 1:200 in PBS. Incubation continued at 4 C for at least 30 minutes, followed by two washes in PBS pH 7.4. Cells were either fixed with 2% PFA (30 minutes at 4° C.) followed by washout and storage in 100 ul of PBS or immediately analysed on a Flow Cytometer. The data was analysed using FloJo V10 and GraphPad Prism. No binding to the HEK parental cell line was detected for any tested clones, confirming the specific interaction between anti-FAP antibodies and the FAP receptor. The results are summarised in.
row,Binder,EC50 [nM]
1,B4,0.7
2,B5,1.1
3,B6,1.7
4,B7,0.6

# Target: T1, human LTBR endogenously expressed on …
# Assay: flow cytometry, HepG2 cells, VHH detected by anti-FLAG
# Protocol: The purified proteins were tested for binding to endogenously expressed human LTBR in HepG2 cells. The expression level was confirmed with anti-LTBR clone CBE-11 (“huCBE11” as disclosed in WO2004002431). The HepG2 cells were resuspended to a final concentration of 1.0×10⁶ cells/ml in FACS buffer. A series dilution of purified VHHs was incubated with mouse anti-FLAG biotinylated antibody (Sigma Aldrich, cat. #F9291-1MG) at 5 μg/ml in FACS buffer for 30 min at RT with shaking. Cell suspensions were distributed into a 96-well v-bottom plate and incubated with the above-described VHH/antibody mixture for 1 hour on ice while shaking. VHH binding to cells was detected with streptavidin R-PE (Invitrogen, cat. #.SA10044) at 1:400 dilution (0.18 μg/ml) in FACS buffer, incubated for 30 minutes on ice with shaking and protection from light. The cells were acquired by flow cytometry. The data was analysed using FloJo V10 and GraphPad Prism. The EC50 values can be found in.
row,Binder,EC50 [nM]
1,B8,1.2
2,B9,2.3
3,B10,1.6
4,B11,0.41

# Target: Human FAP (Acro), recombinant protein (human, UniProt Q12884 26-760)
# Assay: SPR (Carterra LSA), antibody captured by anti-human Fc, FAP as analyte
# Protocol: (§1) Binding of anti-FAP antibodies to human and cynomolgus FAP was investigated by Surface Plasmon Resonance (SPR) on Carterra LSA. An EC30M chip was used to capture the test antibodies. The chip was activated for bioconjugation using EDC and sNHS in MES pH 5.5 to prepare the chip for amine coupling. Goat anti-human IgG Fc antibody was then captured to the chip via incubation for 10 minutes. Excess conjugation sites were quenched with 1M Ethanolamine pH 8. To measure monovalent binding kinetics, antibodies were printed/spotted onto the chip and allowed to bind to the goat antibody, followed by subsequent washing. After the preparation, the printed chip was exposed to repeated rounds of association and dissociation with increasing analyte concentrations. In this work, recombinant proteins (Human FAP (Acro) or cyno FAP His (Acro)) were serially diluted across a range starting at 1500 nM with 3-fold dilutions and 10 points. The curves were fitted to global fit in a 1:1 binding model to obtain KD values. The binding affinity to both human and cynomolgus FAP is reported in.
row,Binder,Kd [nM]
1,B4,0.047
2,B5,0.033
3,B6,0.04
4,B7,0.023

# Target: T3, cyno FAP His (Acro), recombinant protein (cynomolgus (Macaca fascicularis), UniProt Q12884 26-760 (human entry))
# T3 construct: bought protein used as analyte on Carterra LSA
# Assay: as above
# Protocol: as §1
row,Binder,Kd [nM]
1,B4,0.028
2,B5,0.03
3,B6,0.051
4,B7,0.021

# Target: T4, human recombinant LTBR fused on human Fc (SinoBiological, cat. #10581-H02H) (human, UniProt P36941 31-227)
# T4 construct: bought protein; also called human LTBR human IgG1 Fc chimera protein; not shown: human IgG1 Fc
# T4 sequence (P36941 31-227 limits assumed): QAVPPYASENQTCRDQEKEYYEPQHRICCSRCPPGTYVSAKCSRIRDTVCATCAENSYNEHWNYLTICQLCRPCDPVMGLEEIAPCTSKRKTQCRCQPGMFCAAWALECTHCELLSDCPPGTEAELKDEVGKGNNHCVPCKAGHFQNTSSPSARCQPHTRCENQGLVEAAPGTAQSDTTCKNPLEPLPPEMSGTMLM
# Assay: SPR (Biacore T200), LTBR-Fc on CM5 chip, periplasmic extract as analyte
# Protocol: (§2) To confirm species cross-reactivity, either human or cynomolgus recombinant LTBR-fused on human Fc (SinoBiological, cat. #10581-H02H and 90101-C02H) were immobilised on CM5 sensor chips (cat. #CFJB 334). 1:5 dilutions of crude periplasmic extracts of clones expressing VHHs were injected at 30 μl/min for 2 min in HBS-EP pH 7.4 buffer to allow for binding to chip-bound antigen. Next, an HBS-EP pH7.4 buffer without VHHs was injected for 5 minutes at the same flow rate to enable spontaneous dissociation of bound VHHs. Surface regeneration was done with 10 ul of 1 mM Glycine pH 1.5/1 M NaCl injected twice between samples. From the sensorgrams obtained on a BiacoreT200 machine, koff values were calculated by fitting a 1:1 interaction model (Langmuir model) using Insight Evaluation Software (Biacore). Based on this analysis, four clones were selected for further evaluation, and the results are included in.
row,Binder,koff [s⁻¹]
1,B8,0.0038
2,B9,0.0018
3,B10,0.00069
4,B11,0.0008

# Target: T5, cynomolgus recombinant LTBR fused on human Fc (SinoBiological, cat. #90101-C02H) (cynomolgus (Macaca fascicularis), UniProt P36941 31-227 (human entry))
# T5 construct: bought protein
# T5 sequence (P36941 other isoform, or with tags, fused parts or gaps C02H C02H limits assumed): as the sequence (P36941 31-227 limits assumed) above, with A2V, A7G, Q24R, I45S, N163D, K181R, L184S, P186S counted along it
# Assay: as above
# Protocol: as §2
row,Binder,koff [s⁻¹]
1,B8,0.0031
2,B9,0.00097
3,B10,0.0026
4,B11,0.0014
